Consider 1 substance from paper PMC2914828.

This assay addresses alternative complex III (ACIII) subunit s5 (Chloroflexus aurantiacus strain J-10-fl (endogenous)). The experiment in a line: cross-linking.

“alternative complex III (ACIII) subunit s5 (natural protein)” came in with a stoichiometry N of 2.

For orientation: stoichiometry N means the number of molecules, sites or subunits per partner or assembly.
